Reference: patent US20170355773A1 (PELICAN THERAPEUTICS, published 2017)

T1: TNFRSF25-Fc protein (UniProt Q93038 25-199, biotinylated in the capture ELISA)
T1 construct: also called TNFRSF25-Fc fusion protein; biotinylated antigen protein
T1 sequence (looked up): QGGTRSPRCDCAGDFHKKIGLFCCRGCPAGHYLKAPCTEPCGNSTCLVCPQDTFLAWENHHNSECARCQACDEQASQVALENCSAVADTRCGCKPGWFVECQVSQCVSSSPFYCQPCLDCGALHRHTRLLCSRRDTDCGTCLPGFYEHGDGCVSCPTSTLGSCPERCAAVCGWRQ


What was measured:
TNFRSF25-Fc protein = target: T1, TNFRSF25-Fc protein; assay: capture ELISA: scFv captured on anti-c-myc antibody, biotinylated TNFRSF25-Fc, streptavidin-HRP, OD450
W330-cAb1.hIgG1(35783) = target: T2, W330-cAb1.hIgG1(35783); assay: ELISA: coated antibody at 5 ug/ml, TNFRSF25 ECD.hFcHis titrated, detection with anti-his-HRP, absorbance at 450 nm; the concentration is that of the TNFRSF25 fusion
T2 construct: Parent hamster anti-TNFRSF25 antibody made chimeric with human IgFc (hIgG1); also called chimeric anti-TNFRSF25 antibody; chimeric parent antibody

EC50 (read off the curve) (TNFRSF25-Fc protein) [µg/mL]	EC50 (W330-cAb1.hIgG1(35783)) [µg/mL]	Binder
~0.08		9A5 (combinatorial scFv clone of W3072-z4C12) (scFv, V domains shown) VH: EVQLVESGGGLSQPGNSLQLSCEASGFTFSNHDLNWVRQAPGKGLEWVAYISSASGLISYADAVRGRFTISRDNAKNSLFLQMNNLKSEDTAMYYCARDPAYTGLYALDFWGQGTQVTVSS VL: QPVLTQSPSASASLSGSVKLTCTLSSELSGFTIVWYQQRPDKAPKYVMYLKSDGSHSKGDGIPDRFSGSSSGAHRYLSISNVQSEDDATYFCGAGYTLANQYGWVFGSGTKVTVL
~0.2		4B6 (scFv, V domains shown) VH: EVQLVESGGGLSQPGNSLQLSCEASGFTFSNHDLNWVRQAPGKGLEWVAYISSASGLISYADAVRGRFTISRDNAKNSLFLQMNNLKSEDTAMYYCARDPAYTGLYALDFWGQGTQVTVSS VL: QPVLTQSPSASASLSGSVKLTCTLSSELSNYTIVWYQQRPDKAPKYVMYLKSDGSHSKGDGIPDRFSGSSSGAHRYLSISNVQSEDDATYFCGAGYTLANQYGWVFGSGTKVTVL
	4.76	WBP330-hPro1.ECD.hFcHis (non-mutated) (Fc fusion, also called recombinant TNFRSF25 polypeptide; non-mutated WBP330-hPro1.ECD.hFcHis; not shown: human Fc and 6His tag (hFc-6His)) QGGTRSPRCDCAGDFHKKIGLFCCRGCPAGHYLKAPCTEPCGNSTCLVCPQDTFLAWENHHNSECARCQACDEQASQVALENCSAVADTRCGCKPGWFVECQVSQCVSSSPFYCQPCLDCGALHRHTRLLCSRRDTDCGTCLPGFYEHGDGCVSCPTSTLGSCPERCAAVCGWRQMF
